Results reported in the DeepSol protein solubility set.

Test: soluble on expression in E. coli; label from the status in PepcDB or PDB records

Sequence	soluble on expression in E. coli
MLRSQAKNVDLTSQADSRHQQKRKQAEQLDALKNPSEPAAKKQHSKGLTELRAHISGFKIDSAKRDPLGKSRTSRRDVENLPPQKSRYVDPCPHYDYDLEEAGNPDSISDYAQGIFDYYRHREVHFRVRKYLHKHPEVDVKTRAILIDWMVEIQETFELNHETLYNAVKLTDMYLCKTKNVDKNTIQKLACVAIFIAAKYDERSPPLVDDLIYLSGDRFSRDELLAMERELFATVGYDLGSPLSYRYLRRFGRVCRVDMKTLTMGRFILETSLMVYEYAMVSQSRLAAAAFVLAMRMLDKNNEYEWNPVLEKYSGFTGEEVMPLVEHMNHILHFSKDKWAQLTSVRQKYSHEVFFHVASIPMLPDTLKVVDSHTYAPVPMLSYP	not soluble
MRYAEVLIPLALEGSFHYRLAEGLAEKAIVGMRCVVPFGAKRYYTGIIIGLSDKRPNLQISFKEVLFLPDDKPSVTASQLSLWQWLSAYYICTQGEVLRAALPAALLPESHTVIHYNTDFEADSRLSRDEEELLDILESAKGRTYTLDALQKAVGKRAIRAFTSLVERGAIRLEEEVKSRYKPKSEVFVRLAEPFRTEKTFASLLDSLHRAPKQSALLLHWAELITEHSLPYSSPMPQRLLAESDPHATVTLSALKKKGIFLSESVTHSVMYSAGGGEYRLWEQPQEEEKAIQSEESSTDSAVSASLPQKPLSLLYTHDFRRKEKQLLEWTEEVVRSGGQVLYLSPEANKRGGSDTLSTRMAERLGSCLLSYHAFESDAKRVEVWNRLATTEYPCVVLGVRSALFLPFRRLRLIIVDEEQEYLYKQQDPAPRFHTRQVAARLGRIHDCPVVLASATPSAEVLHQVRHKACELITWPDDRVRPRFDLEVIDMGKMRRQRQVGAGELLSFPLVSAIEETIRQKKMAVVLQNRRGFAPYIICSSCGEKLRCIHCDVSLTYHKHSCMLVCHYCGYSRPLPRICPSCKRASGVGEPSSLQPVGYGAERIEEELKRRFPTVSILRMDSDMAMSRTKMDEALARLEAKEVDILVGTQLIKGQVYNEHVGLVAVTQLDSILGFPDFRAYERAYQLLYQLMLRSGASRLYIQTNNPANSFPDLLREGDYKAFIGKQLEERQMLFFPPFSRLIRIEFRAGEESLVERIASDYAASLAAHLPEQSLSPVLVPPISRLRNAFIRELLLRLPLSSSVSATRNILDTIRTTLQTRTQEYKRVRILFDVDPL	not soluble
MSGAFNNDGRGISPLIATSWERCNKLMKRETWNVPHQAQGVTFASIYRRKKAMLTLGQAALEDAWEYMAPRECALFILDETACILSRNGDPQTLQQLSALGFNDGTYCAEGIIGTCALSLAAISGQAVKTMADQHFKQVLWNWAFCATPLFDSKGRLTGTIALACPVEQTTAADLPLTLAIAREVGNLLLTDSLLAETNRHLNQLNALLESMDDGVISWDEQGNLQFINAQAARVLRLDATASQGRAITELLTLPAVLQQAIKQAHPLKHVEATFESQHQFIDAVITLKPIIETQGTSFILLLHPVEQMRQLMTSQLGKVSHTFAHMPQDDPQTRRLIHFGRQAARSSFPVLLCGEEGVGKALLSQAIHNESERAAGPYIAVNCELYGDAALAEEFIGGDRTDNENGRLSRLELAHGGTLFLEKIEYLAVELQSALLQVIKQGVITRLDARRLIPIDVKVIATTTADLAMLVEQNRFSRQLYYALHAFEITIPPLRMRRGSIPALVNNKLRSLEKRFSTRLKIDDDALARLVSCAWPGNDFELYSVIENLALSSDNGRIRVSDLPEHLFTEQATDDVSATRLSTSLSFAEVEKEAIINAAQVTGGRIQEMSALLGIGRTTLWRKMKQHGIDAGQFKRRV	soluble
MGSDKIHHHHHHMPNQPLIFDTAIAKDKPENIRHPHNACPFCDPGQLTDIIAQDADRIWLLNKFPTLQATWQTIVIEAARHDGDIATYSSAQNRAVFTFALKHWQATIASGRFKSVLCYKNFGPHSGGSLRHPHMQIVGLMAADGYANVTAANLTGYSVLAVDQVQVTVSDRPIMGFVEINVAAPATAIAPLADAVQQVVQYTLNTYFHGQCDSYNLFFYPRDDQIVAKVVPLFNVSPYYIGYRLAQADTPKRMRAIAEEIRQQFERSNLAHSN	not soluble
MGSDKIHHHHHHMMQGFLLQTQSIRDEDLIVRVLTKNQLKTLYRFYGKRHSVLNVGRKIDFEEENDDKFLPKLRNILHLGYIWEREMERLFFWQRFCALLFRHLEGVHSLDSVYFDTLDDGANKLAKQHPLRVILEMYATLLNFEGRLQSYNSCFLCDAKLERSVALAQGFILAHPSCLKAKSLNLEKIQAFFRTQSTIDLETEEVEELWRTLNLGF	not soluble
MGSDKIHHHHHHMFYYNQYVRAQSLDEAYELYQKKPNFVLGGMLWLKMKNKTLGTAIDLCDLGLDQIDEDENEFRIGAYATLRQIETHEALNAYTHGAIAESVRHIVGVQFRNVATVGGSIWGRFGFSDVMTIFRALGAKVQLHKAGIMDLDEFAALPRTTRDVLVSVIVPKNAKGVVYLSQRNQSTDFPVLTCAVANRSGRYVAVIGASPYMAEPVWDEDGILDGIADAKTDGNAALTDNSETNAKIDKFAEYVAEHIRFGSNIRAGAEYREIICRVLTRRAVTQSLDICDDIKHEH	not soluble
MAHHTKETMELIKELVSIPSPSGNTAKIINFIENYVSEWNVETKRNNKGALILTVKGKNDAQHRLLTAHVDTLGAMVKEIKPDGRLSLSMIGGFRWNSVEGEYCEIETSSGKTYTGTILMHQTSVHVYKDAGEAKRDEKNIEVRIDERVFSADEVRELGIEVGDFVSFDPRVQITESGYIKSRHLDDKVSVAILLKLIKRLQDENVTLPYTTHFLISNNEEIGYGGNSNIPEETVEYLAVDMGALGDGQASDEYTVSICAKDSSGPYHYALRKHLVELAKTNHIEYKVDIYPYYGSDASAAIRAGFDVKHALIGAGIDSSHAFERTHESSIAHTEALVYAYVMSNLIEE	soluble
MRLWRICFKDPEPFIELYFHKVFREDYTLLQYSETGEAVAHLQMLPYQLRIFGTSFSAGYISGACTHPDHRGKGIMRTMMAEALSAIYDRGDICSFLIPAETWLYDFYSRSGGYAPAFGRKQFLYRPNSIPQKFPSGYACTIGQGDYSFLSAEEHTDIRLAVQHTLGQWQTALKDFSLAGGNVAMLQDSAGKTVSQACFVPRENSLDIKLLVGDAEATFILVDHLLRSLDCDHASILAHSGSAPYGMLRILRPIPILEAFAQYHPAEGYSFAYSDPLFSQHNGTYHISKGRIVFSNNVQPENSLLPHHTPDSLVKDLFSPFPSALFLMLD	not soluble
TKKNELNKAHVTIALTNPKTPTNVGAVIRAAGCYQADQIIYNGNRYAQAAKYHKKTLQTDTFNMQDKIPLLQVESFIGIKDSLESIPSSAKIICVDLVEGATPLPHFIHPPEAVYIFGPEDSSVKQEVIDIADDVVYVPTVGCMNLAATVNVLLYDRLAKSL	not soluble
GSEQKKRRLEEGTRANSVAESSPPFPLRSKTSVGSTNSQITETKNKQGVYPITESNLRILEGEDRSEKAKELLKKYVSNVFENEKTLYIYCKYVMLHYGKDLVNPNEVDSLEFQIINGGITNILIKVKDMSKQAKYLIRLYGPKTDEIINREREKKISCILYNKNIAKKIYVFFTNGRIEEFMDGYALSREDIKNPKFQKLIAKNLKLLHDIKLNENLYKELQVTQKVPGTRPSFLWNTIWKYFHLLNEERKKICSFDAKANILKLIDFDVLRDSIVEVESLCKRENSPIVLCHCDLLSSNIINTVGGGEAGELGEAGETGEGGETGEGGETGEGGETGEGGEGDSISFIDFEYSCPMERAYDIANHFNEYAGFNCDWDLTPSKEEEYHFIMHYLGTDDEELINQLIREIQPFYICSHINWGLWSLLQGMHSSIDFDFINYGMTRLTASCLPIFRSKV	soluble
MGSDKIHHHHHHMATALYTANDFILISLPQNAQPVTAPGSKTDSWFNETLIGGRAFVSDFKIPEFKIGSLDTLIVESEELSKVDNQIGASIGKIIEILQGLNETSTNAYRTLPINNMPVPEYLENFQWQTRKFKLDKSIKDLITLISNESSQLDADVRATYANYNSAKTNLAAAERKKTGDLSVRSLHDIVKPEDFVLNSEHLTTVLVAVPKSLKSDFEKSYETLSKNVVPASASVIAEDAEYVLFNVHLFKKNVQEFTTAAREKKFIPREFNYSEELIDQLKKEHDSAASLEQSLRVQLVRLAKTAYVDVFINWFHIKALRVYVESVLRYGLPPHFNIKIIAVPPKNLSKCKSELIDAFGFLGGNAFMKDKKGKINKQDTSLHQYASLVDTEYEPFVMYIINL	not soluble
